Test results published in PMC5012860, “Hemi-methylated DNA regulates DNA methylation inheritance through allosteric activation of H3 ubiquitylation by UHRF1” (eLife, 2016).

Tests used:
[1] = biological target: T1, His-MBP-tagged UHRF1 SRA-RING (amino acids 405-793) (human, UniProt Q96T88 405-793); test: pull-down; proteins each at 1 uM incubated overnight at 4 C with MBP magnetic beads in 50 mM Tris-HCl pH 8.0, 100 mM NaCl, 0.1% NP-40, 0.5% BSA; blot with GST antibody; also done with 25 uM H3_(1-20)K9me2 peptide, which did not inhibit; details: both partners purified
T1 construct: human UHRF1 SRA-RING, amino acids 405-793; also called MBP-SRA-RING; source: E. coli, purified as described for UHRF1
T1 sequence (looked up): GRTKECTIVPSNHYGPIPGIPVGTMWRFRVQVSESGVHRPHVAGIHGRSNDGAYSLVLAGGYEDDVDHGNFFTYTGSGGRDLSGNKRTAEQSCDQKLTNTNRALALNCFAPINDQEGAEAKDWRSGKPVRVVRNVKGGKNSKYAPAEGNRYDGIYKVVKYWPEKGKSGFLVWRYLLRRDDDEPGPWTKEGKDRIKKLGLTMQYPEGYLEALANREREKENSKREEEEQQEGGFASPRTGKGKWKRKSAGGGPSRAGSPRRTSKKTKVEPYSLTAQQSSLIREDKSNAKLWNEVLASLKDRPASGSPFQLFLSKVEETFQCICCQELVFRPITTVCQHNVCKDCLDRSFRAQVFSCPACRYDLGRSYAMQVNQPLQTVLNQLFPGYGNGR

[2] = biological target: T2, MBP-SRA-RING DNA^mut (G448D) (human, UniProt Q96T88 405-793, G448D); test: pull-down; as a2 with SRA-RING DNA^mut in the presence of 5 uM DNA; details: both partners purified
T2 construct: human UHRF1 SRA-RING, amino acids 405-793, with G448D (DNA^mut); source: E. coli, purified as described for UHRF1
T2 sequence (looked up): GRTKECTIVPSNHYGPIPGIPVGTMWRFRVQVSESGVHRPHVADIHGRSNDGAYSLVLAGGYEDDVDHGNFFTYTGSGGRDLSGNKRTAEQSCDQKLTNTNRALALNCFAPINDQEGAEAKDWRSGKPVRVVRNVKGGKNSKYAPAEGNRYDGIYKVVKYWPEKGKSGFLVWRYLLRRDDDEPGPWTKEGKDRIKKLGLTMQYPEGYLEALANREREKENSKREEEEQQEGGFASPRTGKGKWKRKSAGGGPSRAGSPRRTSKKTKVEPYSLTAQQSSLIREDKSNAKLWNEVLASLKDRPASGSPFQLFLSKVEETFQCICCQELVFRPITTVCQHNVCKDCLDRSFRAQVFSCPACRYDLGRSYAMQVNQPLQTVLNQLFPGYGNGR

B1: GST-tagged UHRF1 TTD-PHD (amino acids 123-366) (domain or fragment, human, UniProt Q96T88 123-366, looked up)
chain: DEDMWDETELGLYKVNEYVDARDTNMGAWFEAQVVRVTRKAPSRDEPCSSTSRPALEEDVIYHVKYDDYPENGVVQMNSRDVRARARTIIKWQDLEVGQVVMLNYNPDNPKERGFWYDAEISRKRETRTARELYANVVLGDDSLNDCRIIFVDEVFKIERPGEGSPMVDNPMRRKSGPSCKHCKDDVNRLCRVCACHLCGGRQDPDKQLMCDECDMAFHIYCLDPPLSSVPSEDEWYCPECRND
notes: human UHRF1 linked tandem Tudor domain and plant homeodomain (TTD-PHD), amino acids 123-366; also called GST-TTD-PHD; source: produced as previously described (Rothbart et al., 2013)
B1: binds [1]; binds [2].
